Data on 4 molecules can be found in patent US20220204643A1 (published 2022).

Common to all, as to assay: protein array
Test [1] has as its target T1, growth factor receptor bound protein 2, transcript variant 1 (human, UniProt P62993 1-217).
T1 construct: on protein array; also called GRB2

For test [2], the target named is T2, leucine rich repeat containing 28, transcript variant 1 (human, UniProt Q86X40 1-367).
T2 construct: on protein array; also called LRRC28

In test [3] the target is T3, homeobox and leucine zipper encoding (human, UniProt Q8IX15 25-550).
T3 construct: on protein array; also called HOMEZ
T3 sequence: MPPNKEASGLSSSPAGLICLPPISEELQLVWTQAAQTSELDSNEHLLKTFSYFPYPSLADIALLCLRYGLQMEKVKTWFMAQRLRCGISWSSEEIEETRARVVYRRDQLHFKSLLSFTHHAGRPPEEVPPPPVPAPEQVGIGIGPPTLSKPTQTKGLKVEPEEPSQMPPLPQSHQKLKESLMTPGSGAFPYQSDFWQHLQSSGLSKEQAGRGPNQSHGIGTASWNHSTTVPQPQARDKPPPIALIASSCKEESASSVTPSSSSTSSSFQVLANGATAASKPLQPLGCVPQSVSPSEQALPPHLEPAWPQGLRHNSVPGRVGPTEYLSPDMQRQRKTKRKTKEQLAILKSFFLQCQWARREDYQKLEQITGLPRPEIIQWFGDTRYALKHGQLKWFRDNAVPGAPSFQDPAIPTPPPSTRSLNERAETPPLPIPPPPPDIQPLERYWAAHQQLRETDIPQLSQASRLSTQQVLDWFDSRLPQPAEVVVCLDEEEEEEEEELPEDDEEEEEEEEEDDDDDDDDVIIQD

For test [4], the target named is T4, BAR/IMD domain containing adaptor protein 2, transcript variant 3 (human, UniProt Q9UQB8 1-511).
T4 construct: on protein array; also called BAIAP2
T4 sequence: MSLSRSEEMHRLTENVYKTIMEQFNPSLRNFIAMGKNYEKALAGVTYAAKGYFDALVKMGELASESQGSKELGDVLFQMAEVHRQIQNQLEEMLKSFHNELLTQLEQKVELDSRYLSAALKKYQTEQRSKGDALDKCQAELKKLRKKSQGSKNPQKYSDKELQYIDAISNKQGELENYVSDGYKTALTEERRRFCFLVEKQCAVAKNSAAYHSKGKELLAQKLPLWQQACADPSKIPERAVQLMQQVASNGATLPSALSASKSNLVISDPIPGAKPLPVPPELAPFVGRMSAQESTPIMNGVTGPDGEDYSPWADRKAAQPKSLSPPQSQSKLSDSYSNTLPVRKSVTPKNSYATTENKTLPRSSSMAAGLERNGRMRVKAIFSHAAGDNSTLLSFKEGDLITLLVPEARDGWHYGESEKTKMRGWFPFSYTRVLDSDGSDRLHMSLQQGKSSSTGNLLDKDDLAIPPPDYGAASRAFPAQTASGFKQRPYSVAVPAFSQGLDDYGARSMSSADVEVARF

In test [5] the target is T5, Atpase secretory pathway ca2+ transporting 1 (human, UniProt P98194 1-909).
T5 construct: on protein array; also called ATP2C1
T5 sequence: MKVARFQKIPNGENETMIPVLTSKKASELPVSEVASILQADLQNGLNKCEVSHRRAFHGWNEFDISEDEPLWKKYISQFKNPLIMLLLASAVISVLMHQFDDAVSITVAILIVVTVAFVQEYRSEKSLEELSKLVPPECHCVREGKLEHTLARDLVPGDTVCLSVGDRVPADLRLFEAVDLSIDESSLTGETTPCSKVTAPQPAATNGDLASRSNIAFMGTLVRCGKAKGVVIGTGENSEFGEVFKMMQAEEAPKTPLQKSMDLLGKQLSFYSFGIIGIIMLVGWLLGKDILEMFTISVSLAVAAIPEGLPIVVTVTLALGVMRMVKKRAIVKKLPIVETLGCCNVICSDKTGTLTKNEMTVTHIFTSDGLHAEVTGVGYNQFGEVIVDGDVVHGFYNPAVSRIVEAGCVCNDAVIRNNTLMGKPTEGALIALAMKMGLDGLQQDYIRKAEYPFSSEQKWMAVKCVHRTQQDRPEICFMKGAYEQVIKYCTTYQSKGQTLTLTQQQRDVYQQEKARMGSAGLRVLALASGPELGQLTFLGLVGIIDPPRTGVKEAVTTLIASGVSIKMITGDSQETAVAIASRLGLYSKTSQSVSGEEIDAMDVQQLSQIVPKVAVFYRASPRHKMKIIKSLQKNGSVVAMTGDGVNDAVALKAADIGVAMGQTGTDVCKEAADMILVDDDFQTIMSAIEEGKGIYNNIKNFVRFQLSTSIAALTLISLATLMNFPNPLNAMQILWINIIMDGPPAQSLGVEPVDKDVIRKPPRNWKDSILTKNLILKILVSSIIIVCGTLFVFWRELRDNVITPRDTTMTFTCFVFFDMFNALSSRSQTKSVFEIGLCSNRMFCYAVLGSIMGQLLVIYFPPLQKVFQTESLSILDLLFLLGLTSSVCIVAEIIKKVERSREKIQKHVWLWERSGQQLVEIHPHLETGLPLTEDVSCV

Test [6] has as its target T6, teashirt zinc finger homeobox 2, transcript variant 1 (human, UniProt Q9NRE2 1-1034).
T6 construct: on protein array; also called TSHZ2
T6 sequence: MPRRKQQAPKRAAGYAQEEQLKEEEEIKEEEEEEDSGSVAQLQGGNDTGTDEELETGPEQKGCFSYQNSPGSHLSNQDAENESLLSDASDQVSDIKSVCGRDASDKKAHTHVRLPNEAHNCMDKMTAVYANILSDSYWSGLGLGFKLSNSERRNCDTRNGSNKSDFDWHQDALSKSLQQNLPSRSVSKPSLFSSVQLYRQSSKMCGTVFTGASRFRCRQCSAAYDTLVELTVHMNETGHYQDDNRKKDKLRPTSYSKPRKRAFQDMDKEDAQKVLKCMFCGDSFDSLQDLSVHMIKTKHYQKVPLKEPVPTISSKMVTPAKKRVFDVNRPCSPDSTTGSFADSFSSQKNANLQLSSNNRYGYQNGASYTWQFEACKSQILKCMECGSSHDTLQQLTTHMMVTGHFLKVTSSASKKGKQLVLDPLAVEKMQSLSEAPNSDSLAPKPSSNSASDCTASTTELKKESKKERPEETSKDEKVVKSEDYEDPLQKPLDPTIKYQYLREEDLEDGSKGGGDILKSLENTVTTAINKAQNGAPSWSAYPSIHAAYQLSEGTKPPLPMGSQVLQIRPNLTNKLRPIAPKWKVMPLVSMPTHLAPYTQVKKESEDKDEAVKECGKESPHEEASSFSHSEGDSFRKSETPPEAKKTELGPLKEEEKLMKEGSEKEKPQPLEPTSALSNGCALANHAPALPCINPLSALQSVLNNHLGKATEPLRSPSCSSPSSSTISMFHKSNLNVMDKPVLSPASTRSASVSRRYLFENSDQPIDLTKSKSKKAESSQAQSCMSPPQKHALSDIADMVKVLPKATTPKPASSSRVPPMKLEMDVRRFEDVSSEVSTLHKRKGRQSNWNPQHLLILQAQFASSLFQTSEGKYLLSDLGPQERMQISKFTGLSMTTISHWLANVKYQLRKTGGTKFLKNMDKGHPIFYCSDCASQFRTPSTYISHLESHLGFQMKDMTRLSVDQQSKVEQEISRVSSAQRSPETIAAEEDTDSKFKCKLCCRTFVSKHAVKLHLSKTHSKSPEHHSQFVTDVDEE

T2 sequence (Q86X40 whole entry, change not shown): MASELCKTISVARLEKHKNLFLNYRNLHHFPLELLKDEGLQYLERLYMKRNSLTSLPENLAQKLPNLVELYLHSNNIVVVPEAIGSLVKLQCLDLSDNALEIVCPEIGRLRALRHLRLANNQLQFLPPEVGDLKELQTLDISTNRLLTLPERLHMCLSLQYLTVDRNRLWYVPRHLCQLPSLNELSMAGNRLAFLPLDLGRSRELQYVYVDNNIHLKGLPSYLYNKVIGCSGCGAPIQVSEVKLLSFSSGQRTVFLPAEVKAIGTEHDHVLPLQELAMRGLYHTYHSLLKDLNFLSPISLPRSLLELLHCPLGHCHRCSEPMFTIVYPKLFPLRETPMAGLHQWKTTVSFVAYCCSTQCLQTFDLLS

B1: TCOL1009 (antibody, V domains shown)
VH: PVQLVQSGAEVKKPGASVKVSCKASGDTFPNYVISWVRQAPGQGLEWVGCINTNNGKTNYVQKLQGRVILTTDTSTNTANMELRSLRFDDTAVYYCARERGQVRSYGMDVWGQGTAVTVSS
VL: PYELTQPPSVSVSPGQTANITCSGDKLGDICVCWYQQKPGQSPVLVIYQHNKRPSGIPERFSGSNSGNTATLTISATQATDEAIYYCQSWDSSSVLFGGGTKLTVLG
notes: VH/VL only
Consider B1, for which, in test [1], the binding result was “binds”.

B2: TESO1003 (antibody, V domains shown)
VH: QVQLVESGGGVVQPGRSLRLSCAASGFTFSNYDMHWVRQAPGKGLEWVTVVSYDGTNKYYAESVQGRFTISRDNSKNTLYLQMNSLRTEDTAVYYCAKEGGWGNTVTTSYYYYGMDVWGQGTTVTVSS
VL: QIVLTQSPATLSLSPGERATLSCRASQSVSNYLAWYQQKPGQAPRLLIYDASNRATGIPARFSGSGSGTDFTLTISSLEPEDFAVYYCQQRSNWPPYTFGQGTKLDIKR
notes: VH/VL only
Take B2: the binding result in test [2] is on record as “binds”.

B3: TCOL1006 (antibody, V domains shown)
VH: EVQLVESGGGLVQPGGSLRLSCAASGFPPRSFAMSWVRQAPGKGLEWVSSISGLGNSIYYAESVKGRFITSRDNSKSTVFLLMNSLRAEDTAVYYCAKSAFGGVPDGFDIWGQGTMVTVSS
VL: QSVVTQPPSASGPPGQTVTISCSGGRSNVASHAVHWYQHLPGTAPKLLIYNDHQRPSGVPDRFSGSKSGPSASLAISGLRSEDEADYYCATWDDSLGGRVVFGGGTKLTVLG
notes: VH/VL only
With B3, the binding result in test [3] and in test [4] was “binds” in each case.

B4: TESO1006 (antibody, V domains shown)
VH: QLHLQESGPGLVKPSETLSLTCTVSGGSVSSSSYYWGWVRQPPGKGLEWIGHVYYSGRTYYNPSLKSRATISLDTSKNQFSLKLSSLTATDTAVYYCATIVAAYSYGFEFDPWGQGILVIVSS
VL: QSVLTQPPSVSAAPGQKVTISCSGGSSNIGNNYVSWYQQLPGTAPKLIIYDNDKRPAGIPDRFSGSKSGSSATLGITGLQNGDEAEYYCGTWDSSLGGGVFGGGTKVTVLG
notes: VH/VL only
Regarding B4, the binding result in test [5] and in test [6] was “binds” throughout.
